# Patent US20070178460A1 (ECOLE POLYTECHNIQUE FEDERALE DE LAUSANNE, published 2007)
# T1: ^187Ntrp-Sec62p (Saccharomyces cerevisiae, UniProt P21825 2-274)
# T1 construct: whole, on cells; Expressed in yeast EGY48 from pRS315CUP1 under the PCUP1-promoter; not shown: 6x His tag at the N-terminus of Ntrp
# T1 sequence: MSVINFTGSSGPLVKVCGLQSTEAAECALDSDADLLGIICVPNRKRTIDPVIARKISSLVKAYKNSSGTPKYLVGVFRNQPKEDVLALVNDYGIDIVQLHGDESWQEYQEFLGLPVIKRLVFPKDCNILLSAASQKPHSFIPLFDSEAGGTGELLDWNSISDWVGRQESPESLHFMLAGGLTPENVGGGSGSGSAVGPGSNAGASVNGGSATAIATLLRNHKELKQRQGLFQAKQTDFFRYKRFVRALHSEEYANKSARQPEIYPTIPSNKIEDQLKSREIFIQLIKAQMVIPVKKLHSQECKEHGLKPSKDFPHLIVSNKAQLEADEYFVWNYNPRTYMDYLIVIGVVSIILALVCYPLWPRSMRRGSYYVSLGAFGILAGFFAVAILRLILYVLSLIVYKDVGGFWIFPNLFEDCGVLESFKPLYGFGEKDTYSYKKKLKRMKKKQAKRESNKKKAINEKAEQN
# T2: Sec63p-^44Ctrp (Saccharomyces cerevisiae, UniProt P14906 1-663)
# T2 construct: whole, on cells; Expressed in yeast EGY48 from pRS316CUP1 under the PCUP1-promoter; also called Sec63p-Ctrp; SEC63-^44Ctrp; not shown: HA tag at the C terminus of Trp1p
# T2 sequence: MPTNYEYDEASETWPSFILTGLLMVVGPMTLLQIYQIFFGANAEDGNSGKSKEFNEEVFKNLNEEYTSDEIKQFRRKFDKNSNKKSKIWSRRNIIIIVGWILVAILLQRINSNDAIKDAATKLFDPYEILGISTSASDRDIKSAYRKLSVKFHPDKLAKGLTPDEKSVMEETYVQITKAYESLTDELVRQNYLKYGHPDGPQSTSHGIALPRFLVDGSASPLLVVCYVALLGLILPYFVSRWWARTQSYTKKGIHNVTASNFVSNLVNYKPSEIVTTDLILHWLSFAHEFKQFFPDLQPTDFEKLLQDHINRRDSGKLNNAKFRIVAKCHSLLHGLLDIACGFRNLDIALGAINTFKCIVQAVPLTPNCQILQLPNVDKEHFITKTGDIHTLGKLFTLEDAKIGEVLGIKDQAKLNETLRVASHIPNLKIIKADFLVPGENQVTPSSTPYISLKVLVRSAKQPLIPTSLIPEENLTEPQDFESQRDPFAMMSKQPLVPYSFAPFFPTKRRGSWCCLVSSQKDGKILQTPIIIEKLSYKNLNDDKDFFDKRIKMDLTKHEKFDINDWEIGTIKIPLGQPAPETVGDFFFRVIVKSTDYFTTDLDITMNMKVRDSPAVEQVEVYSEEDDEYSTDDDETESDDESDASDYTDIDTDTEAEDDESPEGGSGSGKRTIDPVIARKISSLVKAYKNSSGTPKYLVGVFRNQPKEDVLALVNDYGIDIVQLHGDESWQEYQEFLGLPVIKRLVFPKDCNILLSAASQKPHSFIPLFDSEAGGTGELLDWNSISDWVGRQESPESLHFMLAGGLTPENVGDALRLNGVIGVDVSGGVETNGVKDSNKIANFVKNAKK
# T3: Ste14p-^44Ctrp (Saccharomyces cerevisiae, UniProt P32584 1-239)
# T3 construct: whole, on cells; Control fusion; Ctrp fused to the cytoplasmic site of Ste14p; also called Ste14p-Ctrp; STE14-^44Ctrp; not shown: HA tag at the C terminus of Trp1p
# T3 sequence: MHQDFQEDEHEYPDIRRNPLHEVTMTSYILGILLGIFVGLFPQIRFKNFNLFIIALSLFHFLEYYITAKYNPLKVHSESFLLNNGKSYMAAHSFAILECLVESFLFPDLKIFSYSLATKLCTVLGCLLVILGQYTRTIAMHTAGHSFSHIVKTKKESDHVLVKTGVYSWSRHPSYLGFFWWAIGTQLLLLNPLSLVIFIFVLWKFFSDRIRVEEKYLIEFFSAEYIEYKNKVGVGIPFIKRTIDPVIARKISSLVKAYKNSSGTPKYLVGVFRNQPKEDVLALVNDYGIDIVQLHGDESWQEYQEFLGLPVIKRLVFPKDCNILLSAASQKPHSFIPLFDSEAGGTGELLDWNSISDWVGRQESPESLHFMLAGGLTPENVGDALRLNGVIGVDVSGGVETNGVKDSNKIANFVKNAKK
# B1: Ste14p-^187Ctrp (other, Saccharomyces cerevisiae)
# chain: MHQDFQEDEHEYPDIRRNPLHEVTMTSYILGILLGIFVGLFPQIRFKNFNLFIIALSLFHFLEYYITAKYNPLKVHSESFLLNNGKSYMAAHSFAILECLVESFLFPDLKIFSYSLATKLCTVLGCLLVILGQYTRTIAMHTAGHSFSHIVKTKKESDHVLVKTGVYSWSRHPSYLGFFWWAIGTQLLLLNPLSLVIFIFVLWKFFSDRIRVEEKYLIEFFSAEYIEYKNKVGVGIPFIDALRLNGVIGVDVSGGVETNGVKDSNKIANFVKNAKK
# notes: whole, on cells; Control fusion; Ctrp fused to the cytoplasmic site of Ste14p; also called Ste14p-Ctrp; not shown: HA tag at the C terminus of Trp1p
# B2: ^44Ntrp-Sec62p (other, Saccharomyces cerevisiae)
# chain: MSVINFTCSSGPLVKVCGLQSTEAAECALDSDADLLGIICVPNRGGSGSGSAVGPGSNAGASVNGGSATAIATLLRNHKELKQRQGLFQAKQTDFFRYKRFVRALHSEEYANKSARQPEIYPTIPSNKIEDQLKSREIFIQLIKAQMVIPVKKLHSQECKEHGLKPSKDFPHLIVSNKAQLEADEYFVWNYNPRTYMDYLIVIGVVSIILALVCYPLWPRSMRRGSYYVSLGAFGILAGFFAVAILRLILYVLSLIVYKDVGGFWIFPNLFEDCGVLESFKPLYGFGEKDTYSYKKKLKRMKKKQAKRESNKKKAINEKAEQN
# notes: whole, on cells; Expressed in yeast EGY48 from pRS315CUP1 under the PCUP1-promoter; Ntrp at the N terminus of Sec62p; not shown: 6x His tag at the N-terminus of Ntrp
# Experiments:
# Assay in all cases: split-Trp growth complementation in trp1 yeast EGY48
# ^187Ntrp-Sec62p = biological target: T1, ^187Ntrp-Sec62p
# From the text: (§1) To monitor the interaction between Sec62p and Sec63p, trp1 yeast strains expressing pairs of matching Nₜᵣₚ-Sec62p and Sec63p-Cₜᵣₚ fusion proteins were spotted on selective plates lacking tryptophan (FIG. 5). […] To verify that the observed complementation of tryptophan auxotrophy is a result of the interaction between the Sec62p and Sec63p moieties of the fusion proteins, we fused the C-terminal fragments of split-Trp⁴⁴ and split-Trp¹⁸⁷ to the cytoplasmic site of Ste14p (FIG. 4B). Ste14p is a membrane protein of the ER that is known to interact with neither Sec62p nor Sec63p (FIG. 4B) (cf. Wittke, S., Lewke, N., Muller, S., and Johnsson, N. (1999), Mol Biol Cell 10, 2519-2530). No growth on plates lacking tryptophan was observed when matching pairs of Sec62p and Ste14p fusion proteins were co-expressed at 23° C. or 30° C. for 10 days (FIG. 5). The cellular amount of Ste14p-⁴⁴Cₜᵣₚ is roughly 2-3 fold lower than the amount of Sec63p-⁴⁴Cₜᵣₚ as determined by western blotting (data not shown). Since this relatively small effect cannot account for the clear growth difference between the strains expressing either ⁴⁴Nₜᵣₚ-Sec62p/Sec63p-⁴⁴Cₜᵣₚ or ⁴⁴Nₜᵣₚ-Sec62p/Ste14p-⁴⁴Cₜᵣₚ, we conclude that the ⁴⁴Nₜᵣₚ-Sec62p/Sec63p-⁴⁴Cₜᵣₚ interaction signal is specific.
# Sec63p-^44Ctrp = biological target: T2, Sec63p-^44Ctrp
# From the text: as §1
# Ste14p-^44Ctrp = biological target: T3, Ste14p-^44Ctrp
# From the text: as §1
Binder,binding result (^187Ntrp-Sec62p),binding result (Sec63p-^44Ctrp),binding result (Ste14p-^44Ctrp)
B1,no binding,,
B2,,binds,no binding
